Values quoted from earlier work in paper PMC10935306.

Target: Ship2 Sam (Homo sapiens) (UniProt O15357)
Chain of UniProt O15357 (O15357 1193-1258): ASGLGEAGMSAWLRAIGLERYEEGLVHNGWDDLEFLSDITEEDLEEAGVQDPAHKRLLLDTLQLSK

For EphA2 Sam (from UniProt P29317), the Kd is given as 0.75 µM.
